In test [1] the target is T1, FcRn (analyte in the Biacore T200 study) (human, UniProt P55899 24-297; P61769 21-119, limits assumed).
T1 construct: also called human FcRn
The test is described as follows: SPR Biacore T200, antibody immobilized, FcRn analyte. As for the experimental part: (§1) Antibodies were immobilized onto a Series S CM5 sensor chip surface using standard amine coupling chemistry and analyte (FcRn) flowed over the surface. A 2-fold dilution range was selected from 50-0.01 nM FcRn. The association phase of FcRn analyte was monitored for 450 seconds, and dissociation was initially measured for either 250 or 2500 seconds, at 40 μl/min Fc1 was a reference channel and was subtracted from other flow cells to correct for non-specific binding. […] Kinetic values are based on a 1:1 binding model (Table 5).

Test [2] addresses T2, recombinant human FcRn (Sino Biological Inc. Cat. No. CT009-H08H) (human, UniProt P55899 24-297; P61769 21-119).
T2 construct: also called immobilized FcRn
The test is described as follows: competition ELISA, pH 6.0; competitor biotinylated parent murine antibody; captured recombinant human FcRn; HEK-expressed IgG4. As for the experimental part:
(§2) The IgG4 antibodies were tested for antigen binding in a competition ELISA at pH 6.0 and pH 7.4. A Nunc Immuno MaxiSorp 96 well flat bottom microtitre plate (Fisher, cat. no. DIS-971-030J) was pre-coated with 1 μg/ml of an FcRn antibody specific for an IgG-binding epitope distinct from the albumin-binding region overnight at pH 7.4. The following day, 1 μg/ml recombinant human FcRn (Sino Biological Inc. cat. no. CT009-H08H) diluted in PBS pH 7.4 was added to the wells and incubated for 1 hour at 37° C. After washing the plates 3× with PBST pH 7.4, the plates were blocked with PBSM pH 7.4 for 1 hour at 37° C. From this point onwards, all wash and incubation steps were performed at the chosen assay pH (pH 6.0 or 7.4). […] The reaction was stopped with 3 M HCl, absorbance read at 450 nm on a Dynex Technologies MRX TC II plate reader and the binding curves plotted.
(In general: An ELISA detects its analyte on a solid surface through an enzyme-linked reagent.)

Test [3] has as its target T2, recombinant human FcRn (Sino Biological …). Described as above. As for the experimental part: as §2
(§3) NS0 produced humanized affinity matured IgGs were used in all assays other than G50_C10/Vκ3), which was purified from transiently expressing HEK cells.
The source holds these as a separate data set.

For test [4] the target is unchanged. The test is described as follows: competition ELISA, pH 7.4: test IgG4 (from transient HEK per paragraph 152) titrated against fixed biotinylated murine parent antibody on recombinant human FcRn; streptavidin-HRP/TMB, OD450 [top panel]. As for the experimental part:
as §2, §3

For test [5] the target is unchanged. The test is described as follows: competition ELISA, pH 7.4; competitor biotinylated parent murine antibody; captured recombinant human FcRn; HEK-expressed IgG4. As for the experimental part: as §2
Test [6] has the same target. Described as above. As for the experimental part:
as §2, §3
The source holds these as a separate data set.

The target of test [7] is T3, monomeric His-tagged hFcRn (human, UniProt P55899 24-297; P61769 21-119, limits assumed).
T3 construct: also called human FcRn; not shown: His tag
T3 sequence (P55899 24-297 limits assumed, chain 1 of 2): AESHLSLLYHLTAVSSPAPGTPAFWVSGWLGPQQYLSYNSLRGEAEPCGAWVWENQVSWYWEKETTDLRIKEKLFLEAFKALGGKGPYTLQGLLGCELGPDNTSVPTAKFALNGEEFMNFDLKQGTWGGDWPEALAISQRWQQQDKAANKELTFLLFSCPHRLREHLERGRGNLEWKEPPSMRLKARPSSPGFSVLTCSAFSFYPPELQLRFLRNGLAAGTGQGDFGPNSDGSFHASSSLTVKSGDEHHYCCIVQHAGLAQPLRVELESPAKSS
T3 sequence (P61769 21-119 limits assumed, chain 2 of 2): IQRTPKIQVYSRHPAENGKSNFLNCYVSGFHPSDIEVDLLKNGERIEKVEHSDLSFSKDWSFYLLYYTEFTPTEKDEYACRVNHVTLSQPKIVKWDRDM
The test is described as follows: SPR Biacore 3000, antibody amine-coupled to CM5, His-tagged hFcRn analyte, pH 6.0, 25 C, 1:1 Langmuir. As for the experimental part:
(§4) The coupling was performed by injecting 2 μg/ml of each protein into 10 mM sodium acetate, pH 4.5 (GE Healthcare), using the amine coupling kit (GE Healthcare). HBS-P buffer pH 7.4 (0.01 M HEPES, 0.15 M NaCl, 0.005% surfactant P20) or phosphate buffer pH 6.0 (67 mM phosphate buffer, 0.15 M NaCl, 0.005% Tween 20) were used as running buffer and dilution buffer. […] All SPR experiments were conducted at 25° C. with a flow rate of 40 μl/min Binding data were zero-adjusted, and the reference cell value subtracted. The Langmuir 1:1 ligand binding model provided by the BIAevaluation software (version 4.1) was used to determine the binding kinetics. The closeness of the fit is described by the statistical value χ².

The target in test [8] is T3, monomeric His-tagged hFcRn. The test is described as follows: SPR Biacore 3000, antibody amine-coupled to CM5, His-tagged hFcRn analyte, pH 7.4, 25 C, 1:1 Langmuir; pH 7.4. As for the experimental part: as §4
(§5) The kinetic rate constants were obtained using a simple first-order (1:1) Langmuir bimolecular interaction model. The kinetic values represent the average of duplicates. The χ² (chi-square) values represent the fit to the binding model used.
On the technique in general: Surface plasmon resonance follows binding to a sensor surface in real time, without labels.

Test [9] addresses T2, recombinant human FcRn (Sino Biological …). The test is described as follows: competition ELISA, pH 6.0: test IgG4 (from transient HEK per paragraph 152) titrated against fixed biotinylated murine parent antibody on recombinant human FcRn; streptavidin-HRP/TMB, OD450 [top panel]. As for the experimental part:
as §2, §3

Test [10] has as its target T1, FcRn (analyte in the Biacore T200 study). The test is described as follows: SPR Biacore T200, antibody amine-coupled to CM5, FcRn analyte, 1:1 model; pH not stated. As for the experimental part: as §1
For test [11], the target named is T3, monomeric His-tagged hFcRn. The test is described as follows: SPR Biacore 3000, antibody amine-coupled to CM5, His-tagged hFcRn analyte, pH 6.0, 25 C, 1:1 Langmuir; pH 6.0. As for the experimental part: as §4, §5
Test [12] addresses T1, FcRn (analyte in the Biacore T200 study). The test is described as follows: SPR Biacore T200, antibody amine-coupled to CM5, FcRn analyte, 1:1 model; chip with the three best variants (repeat run, dissociation 4500 s per paragraph 156); pH not stated. As for the experimental part: as §1
The target in test [13] is T3, monomeric His-tagged hFcRn. The test is described as follows: SPR Biacore 3000, antibody amine-coupled to CM5, His-tagged hFcRn analyte, pH 7.4, 25 C, 1:1 Langmuir. As for the experimental part:
as §4, §5

“And” between values parts separate entries of the source, which are not always exact repeats. Identical values can stand only once.

T1 sequence (P55899 24-297 limits assumed, chain 1 of 2): as the sequence (P55899 24-297 limits assumed, chain 1 of 2) above
T1 sequence (P61769 21-119 limits assumed, chain 2 of 2): as the sequence (P61769 21-119 limits assumed, chain 2 of 2) above
T2 sequence (P55899 24-297 limits assumed, chain 1 of 2): as the sequence (P55899 24-297 limits assumed, chain 1 of 2) above
T2 sequence (P61769 21-119 limits assumed, chain 2 of 2): as the sequence (P61769 21-119 limits assumed, chain 2 of 2) above

B1: G50_C10/Vκ3 (antibody, V domains shown)
VH: EVQLVESGGGLVKPGGSLKLSCAASGFTFSDYGMHWVRQAPGKGLEWVAYISSGSSTIYYADTVKGRFTISRDNAKNTLYLQMNSLRAEDTAMYYCARLESTTAVGDYWGQGTSVTVSS
VL: DIVMTQSPDSLSASVGDRVTITCKASQSVSNDVAWYQQKPGQPPKLLIYYASNRYTGVPDRFSGSGYGTDFTLTISSLQAEDVAVYFCQQDYSSLTFGQGTKLEIK
notes: Bivalent IgG4 with S241P, human kappa; also called SYNT002-16; G50_C10/Vκ3 (HEK)
As a reminder, the Kd is the equilibrium constant for the complex coming apart. Read a high Kd as weaker binding. Usually koff stands for the first-order rate constant of dissociation. The low end stands for slow dissociation, the high end for fast dissociation. As a reminder, the kon is a measure of how fast the partners come together. Read a high kon as faster complex formation. On to B1, for which the “fold improvement in affinity compared to the humanized parental, on average” value in test [1] was found to be 50 fold. Further, the “Average relative IC50 (relative to humanized parent)” value worked out at 0.9 in [2], 0.89 in test [3], 0.7 in test [5] and 0.54 in [6]. Also, the “IC50 (read off the curve)” value in [4] is about 0.4 µg/mL; in test [9], about 0.5 µg/mL. For the same molecule, the dissociation constant (Kd) came out at 0.4 nM in test [7], 0.054 nM in test [12] and 0.00066 nM in test [13]. Further, the koff in [7] is 4.7e-05 s⁻¹; in test [8], 8e-08 s⁻¹; in [10], ≤ 1e-05 s⁻¹ and 2.34e-05 s⁻¹; in test [12], 1.54e-05 s⁻¹. Further, the kon in [10] was 399000 M⁻¹ s⁻¹ and 298000 M⁻¹ s⁻¹; in test [11] it was 110000 M⁻¹ s⁻¹; in test [12] it was 283000 M⁻¹ s⁻¹; in [13], 120000 M⁻¹ s⁻¹.

These data come from US20190135915A1 (SYNTIMMUNE, published 2019).
